The results in this text go back to article PMC4901313.

The target of this test is Gp45, receptor binding protein (RBP) of Staphylococcus aureus phage ϕ11 (Staphylococcus aureus phage ϕ11). Description: crystal structure; native crystals, space group P1, 2.20 Å; grown in 0.1 M bicine/Trizma base pH 8.5, 10% w/v PEG 8000, 20% v/v ethylene glycol, 0.12 M monosaccharide-mix at 16 °C; three monomers related by non-crystallographic three-fold symmetry.

In turn, “Gp45, receptor binding protein (RBP) of Staphylococcus aureus phage ϕ11 (natural protein)” gave a stoichiometry N of 3.

Broadly, the stoichiometry N is a count of units in the complex or per binding partner.
